# Laboratory results from patent US20170096493A1 (EISAI R AND D MANAGEMENT, published 2017).
# Changes are numbered by the printed parent chain. Names may count otherwise.
# T1: Human Notch4-NRR domain Fc fusion protein (human, UniProt Q99466 1046-1445, limits assumed)
# T1 construct: Expressed in a CHO cell line, used from culture supernatant; 1 is named; also called Human Notch4-NRR Fusion Protein; not shown: Fc
# T1 sequence: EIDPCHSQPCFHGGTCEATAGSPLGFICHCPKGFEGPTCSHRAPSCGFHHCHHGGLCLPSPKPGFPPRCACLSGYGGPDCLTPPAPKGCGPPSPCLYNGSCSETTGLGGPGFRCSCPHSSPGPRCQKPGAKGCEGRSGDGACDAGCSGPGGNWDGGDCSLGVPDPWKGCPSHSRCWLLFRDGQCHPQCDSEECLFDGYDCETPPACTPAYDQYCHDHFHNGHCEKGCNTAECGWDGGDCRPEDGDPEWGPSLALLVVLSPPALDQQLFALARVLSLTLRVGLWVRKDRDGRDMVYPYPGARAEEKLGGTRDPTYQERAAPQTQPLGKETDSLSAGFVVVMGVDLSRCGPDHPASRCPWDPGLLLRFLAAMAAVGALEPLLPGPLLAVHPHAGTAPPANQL
# B1: HA1L5 (antibody, human IgG2, kappa, V domains shown)
# VH: EVQLVESGGGLVQPGGSLRLSCAASGFTFSSYGMSWVRQAPGKGLEYVSTINSNGGRTYYANSVKGRFTISRDNSKNTLYLQMGSLRAEDMAVYYCARDQGFAYWGQGTLVTVSS
# VL: DIQMTQSPSSLSASVGDRVTITCKASQDVGTAVAWYQQKPGKSPKLLIYWASTRHTGVPSRFSGSGSGTDFTLTISSLQPEDVATYFCQQYSSYPWTFGQGTKVEIKR
# notes: Humanized IgG2 (V234A, G237A)/κ; also called No. 25
# B2: HA1L2 (antibody, human IgG2, kappa, V domains shown)
# VH: B1 VH
# VL: B1 VL with S43V
# notes: Humanized IgG2 (V234A, G237A)/κ; also called No. 22
# B3: HK1L3 (antibody, human IgG2, kappa, V domains shown)
# VH: B1 VH with A61P, N62D
# VL: EIVMTQSPATLSVSPGERATLSCKASQDVGTAVAWYQQKPGQAPRLLIYWASTRHTGIPARFSGSGSGTEFTLTISSLQSEDFAVYYCQQYSSYPWTFGQGTKVEIKR
# notes: Humanized IgG2 (V234A, G237A)/κ; also called No. 8
# B4: HK1L4 (antibody, human IgG2, kappa, V domains shown)
# VH: B1 VH with A61P, N62D
# VL: B3 VL with Y87F
# notes: Humanized IgG2 (V234A, G237A)/κ; also called No. 9
# B5: HA2L6(Lys-) (antibody, human IgG2, kappa, V domains shown)
# VH: B1 VH with Y47L
# VL: B3 VL with A43S, Y87F
# notes: Humanized IgG2 (V234A, G237A)/κ; also called No. 40
# B6: HK3L6(Lys-) (antibody, human IgG2, kappa, V domains shown)
# VH: B1 VH with Y47L, S49A, A61P, N62D, R87K
# VL: B3 VL with A43S, Y87F
# notes: Humanized IgG2 (V234A, G237A)/κ; also called No. 42
# B7: HK2L2 (antibody, human IgG2, kappa, V domains shown)
# VH: B1 VH with Y47L, A61P, N62D
# VL: B1 VL with S43V
# notes: Humanized IgG2 (V234A, G237A)/κ; also called No. 12
# B8: HA2L1 (antibody, human IgG2, kappa, V domains shown)
# VH: B1 VH with Y47L
# VL: B1 VL with S43V, F87Y
# notes: Humanized IgG2 (V234A, G237A)/κ; also called No. 26
# B9: HA2L2 (antibody, human IgG2, kappa, V domains shown)
# VH: B1 VH with Y47L
# VL: B1 VL with S43V
# notes: Humanized IgG2 (V234A, G237A)/κ; also called No. 27
# B10: HK3L1 (antibody, human IgG2, kappa, V domains shown)
# VH: B1 VH with Y47L, S49A, A61P, N62D, R87K
# VL: B1 VL with S43V, F87Y
# notes: Humanized IgG2 (V234A, G237A)/κ; also called No. 16
# B11: HK2L1 (antibody, human IgG2, kappa, V domains shown)
# VH: B1 VH with Y47L, A61P, N62D
# VL: B1 VL with S43V, F87Y
# notes: Humanized IgG2 (V234A, G237A)/κ; also called No. 11
# B12: HK3L2 (antibody, human IgG2, kappa, V domains shown)
# VH: B1 VH with Y47L, S49A, A61P, N62D, R87K
# VL: B1 VL with S43V
# notes: Humanized IgG2 (V234A, G237A)/κ; also called No. 17
# B13: HA2L5 (antibody, human IgG2, kappa)
# heavy: EVQLVESGGGLVQPGGSLRLSCAASGFTFSSYGMSWVRQAPGKGLELVSTINSNGGRTYYANSVKGRFTISRDNSKNTLYLQMGSLRAEDMAVYYCARDQGFAYWGQGTLVTVSSASTKGPSVFPLAPCSRSTSESTAALGCLVKDYFPEPVTVSWNSGALTSGVHTFPAVLQSSGLYSLSSVVTVPSSNFGTQTYTCNVDHKPSNTKVDKTVERKCCVECPPCPAPPAAAPSVFLFPPKPKDTLMISRTPEVTCVVVDVSHEDPEVQFNWYVDGVEVHNAKTKPREEQFNSTFRVVSVLTVVHQDWLNGKEYKCKVSNKGLPAPIEKTISKTKGQPREPQVYTLPPSREEMTKNQVSLTCLVKGFYPSDIAVEWESNGQPENNYKTTPPMLDSDGSFFLYSKLTVDKSRWQQGNVFSCSVMHEALHNHYTQKSLSLSPGK
# light: DIQMTQSPSSLSASVGDRVTITCKASQDVGTAVAWYQQKPGKSPKLLIYWASTRHTGVPSRFSGSGSGTDFTLTISSLQPEDVATYFCQQYSSYPWTFGQGTKVEIKRTVAAPSVFIFPPSDEQLKSGTASVVCLLNNFYPREAKVQWKVDNALQSGNSQESVTEQDSKDSTYSLSSTLTLSKADYEKHKVYACEVTHQGLSSPVTKSFNRGEC
# notes: Humanized IgG2 (V234A, G237A)/κ; also called No. 30
# B14: HK3L5 (antibody, human IgG2, kappa)
# heavy: B13 heavy with S49A, A61P, N62D, R87K
# light: B13 light
# notes: Humanized IgG2 (V234A, G237A)/κ; also called No. 20
# B15: HK2L5 (antibody, human IgG2, kappa)
# heavy: B13 heavy with A61P, N62D
# light: B13 light
# notes: Humanized IgG2 (V234A, G237A)/κ; also called No. 15
# B16: HK2L4 (antibody, human IgG2, kappa)
# heavy: B13 heavy with A61P, N62D
# light: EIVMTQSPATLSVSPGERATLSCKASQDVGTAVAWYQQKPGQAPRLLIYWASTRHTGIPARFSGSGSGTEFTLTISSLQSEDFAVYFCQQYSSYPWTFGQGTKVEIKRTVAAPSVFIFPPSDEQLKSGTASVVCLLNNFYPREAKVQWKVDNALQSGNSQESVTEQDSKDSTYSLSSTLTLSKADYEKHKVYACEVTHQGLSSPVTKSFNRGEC
# notes: Humanized IgG2 (V234A, G237A)/κ; also called No. 14
# B17: HA2L3 (antibody, human IgG2, kappa)
# heavy: B13 heavy
# light: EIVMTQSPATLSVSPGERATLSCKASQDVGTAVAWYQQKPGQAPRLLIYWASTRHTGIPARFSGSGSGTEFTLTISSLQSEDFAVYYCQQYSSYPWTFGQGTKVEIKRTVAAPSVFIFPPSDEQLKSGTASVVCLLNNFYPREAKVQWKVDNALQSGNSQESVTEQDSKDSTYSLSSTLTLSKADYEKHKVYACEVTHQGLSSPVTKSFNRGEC
# notes: Humanized IgG2 (V234A, G237A)/κ; also called No. 28
# B18: HK2L3 (antibody, human IgG2, kappa)
# heavy: B13 heavy with A61P, N62D
# light: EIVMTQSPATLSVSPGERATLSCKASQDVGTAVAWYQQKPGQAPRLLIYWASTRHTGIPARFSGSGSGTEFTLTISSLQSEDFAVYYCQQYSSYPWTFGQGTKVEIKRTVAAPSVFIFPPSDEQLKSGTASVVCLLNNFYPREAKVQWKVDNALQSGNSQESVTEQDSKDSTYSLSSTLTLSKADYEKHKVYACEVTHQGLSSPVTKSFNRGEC
# notes: Humanized IgG2 (V234A, G237A)/κ; also called No. 13
# B19: HA2L4 (antibody, human IgG2, kappa)
# heavy: B13 heavy
# light: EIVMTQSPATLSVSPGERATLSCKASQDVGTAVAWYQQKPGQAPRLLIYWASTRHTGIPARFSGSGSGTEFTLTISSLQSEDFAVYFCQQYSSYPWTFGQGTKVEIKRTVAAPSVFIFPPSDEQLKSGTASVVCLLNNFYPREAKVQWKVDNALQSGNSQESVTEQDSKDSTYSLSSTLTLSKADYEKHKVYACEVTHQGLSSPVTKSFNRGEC
# notes: Humanized IgG2 (V234A, G237A)/κ; also called No. 29
# B20: HK3L4 (antibody, human IgG2, kappa)
# heavy: B13 heavy with S49A, A61P, N62D, R87K
# light: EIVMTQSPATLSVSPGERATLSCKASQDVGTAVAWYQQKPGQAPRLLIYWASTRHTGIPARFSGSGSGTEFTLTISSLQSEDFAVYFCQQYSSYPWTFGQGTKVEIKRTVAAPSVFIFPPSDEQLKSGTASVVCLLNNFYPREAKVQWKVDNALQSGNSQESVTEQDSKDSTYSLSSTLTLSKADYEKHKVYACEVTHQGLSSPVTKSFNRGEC
# notes: Humanized IgG2 (V234A, G237A)/κ; also called No. 19
# B21: HK3L3 (antibody, human IgG2, kappa)
# heavy: B13 heavy with S49A, A61P, N62D, R87K
# light: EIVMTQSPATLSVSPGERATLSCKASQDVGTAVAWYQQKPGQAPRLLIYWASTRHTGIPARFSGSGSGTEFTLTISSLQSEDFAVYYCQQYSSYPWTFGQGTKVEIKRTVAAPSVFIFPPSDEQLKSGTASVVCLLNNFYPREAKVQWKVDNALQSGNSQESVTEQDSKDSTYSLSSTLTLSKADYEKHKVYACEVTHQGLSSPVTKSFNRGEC
# notes: Humanized IgG2 (V234A, G237A)/κ; also called No. 18
# Molecular target: T1, Human Notch4-NRR domain Fc fusion …
# Assay: SPR (Biacore) as for Table 30; Notch4-NRR-Fc captured, antibody injected; averaged, N=2
# Method: (§1) Kinetic analysis of further anti-Notch4 inhibitory humanized antibodies was carried out as follows. Human Notch4-NRR domain Fc fusion proteins were expressed with a CHO cell line. The antigen in the culture supernatant was captured by the anti-human Notch4 antibody fixed on a CM5 sensor chip that recognizes different epitopes of human Notch4. The humanized anti-human Notch4 antibody was then injected onto the sensor chip at various concentrations. The interaction and disassociation constants thereof were calculated according to manufacturer's instructions.
Binder,Kd [nM],koff [s⁻¹],kon [M⁻¹ s⁻¹]
B1,7.2,0.0452,6.36e+06
B2,18.6,0.0122,649000
B3,4.87,0.0196,3.71e+06
B4,4.34,0.0118,2.78e+06

# Molecular target: T1, Human Notch4-NRR domain Fc fusion …
# Assay: SPR (Biacore) as for Table 30; Notch4-NRR-Fc captured, antibody injected; averaged, N=3
# Method: as §1
Binder,Kd [nM],koff [s⁻¹],kon [M⁻¹ s⁻¹]
B5,0.838,0.00151,1.83e+06
B6,0.766,0.00114,1.51e+06

# Molecular target: T1, Human Notch4-NRR domain Fc fusion …
# Assay: SPR (Biacore) as for Table 30; Notch4-NRR-Fc captured, antibody injected; averaged, N=4
# Method: as §1
Binder,Kd [nM],koff [s⁻¹],kon [M⁻¹ s⁻¹]
B7,1.38,0.00157,1.23e+06
B8,1.76,0.00166,949000
B9,1.41,0.00222,1.63e+06
B10,1.76,0.00133,783000
B11,1.84,0.0016,875000
B12,1.29,0.00145,1.13e+06

# Molecular target: T1, Human Notch4-NRR domain Fc fusion …
# Assay: SPR (Biacore) as for Table 30; Notch4-NRR-Fc captured, antibody injected; averaged, N=6
# Method: as §1
Binder,Kd [nM],koff [s⁻¹],kon [M⁻¹ s⁻¹]
B13,0.612,0.00136,2.49e+06
B14,0.601,0.00102,1.72e+06
B15,0.549,0.00112,2.07e+06
B16,0.634,0.00117,1.89e+06
B17,0.727,0.00137,1.95e+06
B18,0.682,0.00109,1.62e+06
B19,0.738,0.00169,2.33e+06
B20,0.755,0.0012,1.61e+06
B21,0.897,0.00104,1.22e+06
